Molecular target: T1, glycoprotein 130 (UniProt P40189 23-619)
T1 construct: gp130 (glycoprotein 130), bought recombinant protein; also called gp130; source: bought: R&D Systems
T1 sequence (looked up): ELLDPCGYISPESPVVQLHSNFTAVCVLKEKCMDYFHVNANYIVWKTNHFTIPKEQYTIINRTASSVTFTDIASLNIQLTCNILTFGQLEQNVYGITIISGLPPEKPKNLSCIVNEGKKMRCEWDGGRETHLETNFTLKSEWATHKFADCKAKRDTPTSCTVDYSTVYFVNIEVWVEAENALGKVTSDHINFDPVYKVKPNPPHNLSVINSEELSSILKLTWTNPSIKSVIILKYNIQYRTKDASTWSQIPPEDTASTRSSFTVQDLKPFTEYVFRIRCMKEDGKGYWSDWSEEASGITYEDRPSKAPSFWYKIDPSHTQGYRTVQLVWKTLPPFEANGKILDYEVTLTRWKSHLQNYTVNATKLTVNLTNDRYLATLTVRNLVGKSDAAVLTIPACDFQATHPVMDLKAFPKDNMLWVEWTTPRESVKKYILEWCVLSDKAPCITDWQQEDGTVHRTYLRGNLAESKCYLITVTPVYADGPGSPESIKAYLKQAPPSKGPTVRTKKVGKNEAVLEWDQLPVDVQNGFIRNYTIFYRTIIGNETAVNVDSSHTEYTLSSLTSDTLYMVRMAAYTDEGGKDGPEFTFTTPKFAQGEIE
Assay: SPR; kinetics; OSM immobilised by EDC/NHS coupling on a carboxyl mixed self-assembled monolayer gold chip (Reichert SR7000), increasing concentrations of gp130 injected; 25 °C; PBS with 0.005% Tween-20; 30 μL/min
Settings: both partners purified

B1: Oncostatin M (ligand, human, UniProt P13725 26-221, looked up)
chain: AAIGSCSKEYRVLLGQLQKQTDLMQDTSRLLDPYIRIQGLDVPKLREHCRERPGAFPSEETLRGLGRRGFLQTLNATLGCVLHRLADLEQRLPKAQDLERSGLNIEDLEKLQMARPNILGLRNNIYCMAQLLDNSDTAEPTKAGRGASQPPTPTPASDAFQRKLEGCRFLHGYHRFMHSVGRVFSKWGESPNRSRR
notes: Oncostatin M, human; about 24 kDa; immobilised for SPR; The construct is only 'as previously described'; also called OSM; source: recombinant OSM, 'as previously described'
With B1 the Kd was 20.5 nM.

— publication PMC12362618, “Development of the First Small-Molecule Inhibitor Targeting Oncostatin M for Treatment of Breast Cancer” (Journal of Medicinal Chemistry, 2025)
